# Patent EP4667489A1 (Kyinno Biotechnology Co., Ltd., dated 2025)
# Positions count from the first letter of the chain named. Names may count otherwise.
# T1: LAG3-His (ACRO, Cat No.: LA3-H5222) (UniProt P18627 23-450)
# T1 construct: bought protein; not shown: His tag
# T1 sequence (looked up): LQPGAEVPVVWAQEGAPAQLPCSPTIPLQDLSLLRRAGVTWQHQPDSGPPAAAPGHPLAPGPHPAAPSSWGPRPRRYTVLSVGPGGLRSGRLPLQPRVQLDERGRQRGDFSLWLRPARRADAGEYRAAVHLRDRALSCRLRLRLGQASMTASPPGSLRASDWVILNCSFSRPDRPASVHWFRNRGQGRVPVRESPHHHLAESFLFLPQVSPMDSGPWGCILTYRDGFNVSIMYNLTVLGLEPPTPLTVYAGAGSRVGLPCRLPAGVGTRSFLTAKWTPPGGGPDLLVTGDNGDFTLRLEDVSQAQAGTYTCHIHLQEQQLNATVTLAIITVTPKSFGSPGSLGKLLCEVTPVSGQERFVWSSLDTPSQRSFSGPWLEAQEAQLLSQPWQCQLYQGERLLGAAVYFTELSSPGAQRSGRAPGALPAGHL
# T2: LAG3-mFc (fusion protein of the human LAG3 extracellular domain and mouse IgG2a-Fc) (human; mouse, UniProt P18627 23-450)
# T2 construct: extracellular domain; also called human LAG3-mFc; not shown: mouse IgG2a-Fc, Genbank AAH31470.1
# T2 sequence (looked up): T1 sequence (looked up)
# T3: human LAG3 expressed on 293T-LAG3 cells (human, UniProt P18627 23-525)
# T3 construct: whole, on cells; 293T cells stably expressing human LAG3 (Kyinno KC-0214); also called LAG3-expressing cells
# T3 sequence (looked up): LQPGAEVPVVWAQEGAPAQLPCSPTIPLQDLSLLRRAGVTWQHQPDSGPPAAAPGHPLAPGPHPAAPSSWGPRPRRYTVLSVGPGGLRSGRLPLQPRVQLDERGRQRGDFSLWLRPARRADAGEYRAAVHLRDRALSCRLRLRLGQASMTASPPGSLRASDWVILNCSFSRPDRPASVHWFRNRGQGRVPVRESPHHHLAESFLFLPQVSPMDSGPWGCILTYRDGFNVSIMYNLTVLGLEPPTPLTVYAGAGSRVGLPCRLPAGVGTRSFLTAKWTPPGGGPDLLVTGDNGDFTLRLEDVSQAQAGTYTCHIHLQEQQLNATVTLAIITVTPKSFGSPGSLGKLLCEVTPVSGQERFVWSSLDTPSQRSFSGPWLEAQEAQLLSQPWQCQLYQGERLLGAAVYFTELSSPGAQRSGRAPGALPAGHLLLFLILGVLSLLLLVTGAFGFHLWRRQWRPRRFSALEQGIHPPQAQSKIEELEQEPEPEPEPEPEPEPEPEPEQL
# B1: KA-2072 H22A12×58E3-CLC01 (bispecific antibody, human IgG1, kappa)
# heavy 1: not shown
# heavy 2: not shown
# light: DIQITQSPSSLSASVGDRVTITCSATSGVSYMHWYQQKPGKAPKRLIYDTSRLASGVPSRFSGSGSGTDYTLTISSLQPEDFATYYCQQWSSNPPYTFGQGTRLEIKRTVAAPSVFIFPPSDEQLKSGTASVVCLLNNFYPREAKVQWKVDNALQSGNSQESVTEQDSKDSTYSLSSTLTLSKADYEKHKVYACEVTHQGLSSPVTKSFNRGEC
# notes: EGFR×PDL1 bispecific; first heavy chain targets EGFR (hIgG1 Knob), second targets PDL1 (hIgG1 Hole); common light chain 1
# B2: KA-2073 H22A12×58E3-CLC02 (bispecific antibody, human IgG1, kappa)
# heavy 1: not shown
# heavy 2: not shown
# light: DIQLTQSPSTLSASVGDRVTITCSATSSIGYMHWYQQKPGTSPKRWIYDTSKLASGVPSRFSGSGSGTEYTLTISSLQPDDFATYYCQLWSSDPPYTFGQGTRLEIKRTVAAPSVFIFPPSDEQLKSGTASVVCLLNNFYPREAKVQWKVDNALQSGNSQESVTEQDSKDSTYSLSSTLTLSKADYEKHKVYACEVTHQGLSSPVTKSFNRGEC
# notes: EGFR×PDL1 bispecific; first heavy chain targets EGFR (hIgG1 Knob), second targets PDL1 (hIgG1 Hole); common light chain 3
# B3: KA-1782 H28G2-7V4-hIgG4M (antibody, V domains shown)
# VH: QVQLQESGPGLVKPSETLSLTCTVSGYSFTSGYYWNWIRQPPGKGLEWIGYVSYFGTANYNPALKNRVTISRDTSKNQFSLKLSSVTAADTAVYYCARGEEWDWSFDVWGQGTTVTVSS
# VL: DIQITQSPSSLSASVGDRVTITCSATSGVSYMHWYQQKPGKAPKRLIYDTSRLASGVPSRFSGSGSGTDYTLTISSLQPEDFATYYCQQWSSNPPYTFGQGTRLEIKR
# notes: anti-LAG3 humanized antibody, human IgG4 (S228P) / kappa
# B4: KA-1773 M107D12-10CLC1-hIgG4M (antibody, V domains shown)
# VH: QVQLKESGGGLVKPGGSLKLSCAASGFTFSDYGMHWVRQAPEKGLEWVAYISSGSYTIYYADTVRDRFTISRDSAKNTLFLQMTSLRSEDTAMYYCVRRGPGYFGSTALDYWGQGTTLTVSS
# VL: QIVLTQSPAIMSASPGEKVTMTCSATSGVSYMHWYQQKSGTSPKRWIYDTSRLASGVPARFSGSGSGTSYSLTISSMEAEDAATYYCQQWSSNPPYTFGSGTKLEIKR
# notes: anti-PD1 chimeric antibody, human IgG4 (S228P) / kappa
# B5: KA-1774 M107D12-10CLC2-hIgG4M (antibody, V domains shown)
# VH: B4 VH
# VL: B4 VL with T26S, G28S, R52K
# B6: KA-1807 H107D12-10V4-hIgG4M (antibody, V domains shown)
# VH: B4 VH with K5V, K19R, V37I, E42G, T78S, F80Y, T84N, S88A, M93V, L118V
# VL: B3 VL
# notes: anti-PD1 humanized antibody, human IgG4 (S228P) / kappa; also called KA-1807 H107D12-10V4-hlgG4M
# B7: KA-1728 M28G2-7CLC1-hIgG4M (antibody, V domains shown)
# VH: DVKLQESGPGLVKPSQSLSLTCSVTGYSFTSGYYWNWIRLFPGNKLEWMGYVSYFGTNNYNPSLKNRFSITRDTSKNQFFLKLNSVSTEDTATYYCARGEEWDWSFDVWGTGTTVTVSS
# VL: B4 VL
# B8: KA-1733 M28G2-7CLC2-hIgG4M (antibody, V domains shown)
# VH: B7 VH
# VL: B4 VL with T26S, G28S, R52K
# How the values were obtained:
# [1] = molecular target: T4, PDL1-His (Kyinno, Cat No.: KP-1022) (UniProt Q9NZQ7 19-238, limits assumed); test: BLI (ForteBio Octet), PDL1-His as mobile phase
# T4 construct: not shown: His tag
# T4 sequence (Q9NZQ7 19-238 limits assumed): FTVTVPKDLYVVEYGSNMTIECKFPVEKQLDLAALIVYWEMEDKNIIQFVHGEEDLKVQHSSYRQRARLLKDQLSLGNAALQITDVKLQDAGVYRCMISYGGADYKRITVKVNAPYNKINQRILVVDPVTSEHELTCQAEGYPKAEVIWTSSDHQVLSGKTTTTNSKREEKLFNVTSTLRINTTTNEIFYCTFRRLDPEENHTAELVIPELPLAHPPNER
# [2] = molecular target: T5, human EGFR expressed on CT26-EGFR cells (human, UniProt P00533 25-1210); test: flow cytometry, blocking of EGF-mFc binding to CT26-EGFR cells
# T5 construct: whole, on cells; CT26 cells stably expressing human EGFR (Kyinno KC-1451); also called EGFR-expressing cells; 293T-NFAT-Luc2-EGFR cells
# [3] = molecular target: T6, human PDL1 expressed on 293T-PDL1 cells (human, UniProt Q9NZQ7 19-290); test: cell-based or functional assay
# T6 sequence (Q9NZQ7 19-290): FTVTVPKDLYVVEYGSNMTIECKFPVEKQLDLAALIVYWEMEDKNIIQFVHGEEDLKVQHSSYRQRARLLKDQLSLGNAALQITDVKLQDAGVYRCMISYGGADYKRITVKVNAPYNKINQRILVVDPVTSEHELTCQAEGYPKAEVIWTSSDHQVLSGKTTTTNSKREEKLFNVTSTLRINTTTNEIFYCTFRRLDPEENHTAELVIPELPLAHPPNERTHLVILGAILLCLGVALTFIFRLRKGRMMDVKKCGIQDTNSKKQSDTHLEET
# [4] = molecular target: T7, PDL1-mFc (fusion protein of the human PDL1 extracellular domain and mouse Fc; Kyinno, Cat No.: KP-1008) (human; mouse, UniProt Q9NZQ7 19-238); test: flow cytometry, blocking of PDL1-mFc binding to 293T-PD1 cells
# T7 construct: extracellular domain; bought; also called human PDL1-mFc; not shown: mouse Fc
# T7 sequence (Q9NZQ7 19-238): as the sequence (Q9NZQ7 19-238 limits assumed) above
# [5] = molecular target: T5, human EGFR expressed on CT26-EGFR cells; test: cell-based or functional assay
# [6] = molecular target: T5, human EGFR expressed on CT26-EGFR cells; test: flow cytometry on CT26-EGFR cells
# [7] = molecular target: T8, EGFR-His (Kyinno, Cat No.: KP-1150) (UniProt P00533 25-645, limits assumed); test: BLI (ForteBio Octet), EGFR-His as mobile phase
# T8 construct: bought; not shown: His tag
# [8] = molecular target: T6, human PDL1 expressed on 293T-PDL1 cells; test: flow cytometry on 293T-PDL1 cells
# [9] = molecular target: T1, LAG3-His (ACRO, Cat No.: LA3-H5222); test: BLI (ForteBio Octet), LAG3-His as mobile phase
# [10] = molecular target: T2, LAG3-mFc (fusion protein of the human …); test: flow cytometry, blocking of LAG3-mFc binding to Daudi cells
# [11] = molecular target: T3, human LAG3 expressed on 293T-LAG3 cells; test: flow cytometry on 293T-LAG3 cells
# [12] = molecular target: T9, human PD1 expressed on 293T-PD1 cells (human, UniProt Q15116 25-288); test: flow cytometry on 293T-PD1 cells
# T9 construct: whole, on cells; 293T cells stably expressing human PD1 (Kyinno KC-0204); also called PD1-expressing cells; Jurkat NFAT-PD1-luc cells
# T9 sequence (Q15116 25-288): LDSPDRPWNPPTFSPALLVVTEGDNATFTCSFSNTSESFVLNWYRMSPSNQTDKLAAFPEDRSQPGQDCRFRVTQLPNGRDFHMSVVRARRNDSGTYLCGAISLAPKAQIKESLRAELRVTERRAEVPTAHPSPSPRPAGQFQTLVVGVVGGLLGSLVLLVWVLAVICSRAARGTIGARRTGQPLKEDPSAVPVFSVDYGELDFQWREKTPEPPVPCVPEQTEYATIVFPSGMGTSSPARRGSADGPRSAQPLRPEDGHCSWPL
# [13] = molecular target: T10, PD1-mFc (fusion protein of the human PD1 extracellular domain and mouse IgG2a-Fc) (human; mouse, UniProt Q15116 25-170); test: flow cytometry, blocking of PD1-mFc binding to 293T-PDL1 cells
# T10 construct: extracellular domain; not shown: mouse IgG2a-Fc, Genbank AAH31470.1
# T10 sequence (Q15116 25-170): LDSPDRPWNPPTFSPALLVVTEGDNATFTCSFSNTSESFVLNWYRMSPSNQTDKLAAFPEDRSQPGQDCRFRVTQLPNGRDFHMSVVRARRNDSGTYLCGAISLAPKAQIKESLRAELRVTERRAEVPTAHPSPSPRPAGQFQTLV
# [14] = molecular target: T11, PD1-His (Kyinno, Cat No.: KP-1023) (UniProt Q15116 25-167, limits assumed); test: BLI (ForteBio Octet), PD1-His as mobile phase
# T11 construct: bought protein; not shown: His tag
# T11 sequence (Q15116 25-167 limits assumed): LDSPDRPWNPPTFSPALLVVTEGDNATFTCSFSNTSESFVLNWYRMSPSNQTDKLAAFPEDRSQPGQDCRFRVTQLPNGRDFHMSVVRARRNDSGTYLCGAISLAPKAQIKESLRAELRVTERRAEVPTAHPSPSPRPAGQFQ
binder,measurement,setting,value
B1,Kd,[1],0.464 nM
same,koff,[1],0.000426 s⁻¹
same,kon,[1],918000 M⁻¹ s⁻¹
same,IC50,[2],0.0155 µg/mL
same,"IC50, luciferase reporter (procedure of Example 30)",[3],0.372 nM
same,IC50,[4],0.122 µg/mL
same,"IC50, luciferase reporter (procedure of Example 34)",[5],1.01 nM
same,EC50,[6],0.0393 µg/mL
same,Kd,[7],4.21 nM
same,koff,[7],0.00295 s⁻¹
same,kon,[7],701000 M⁻¹ s⁻¹
same,EC50,[8],0.422 µg/mL
B2,Kd,[1],0.602 nM
same,koff,[1],0.00126 s⁻¹
same,kon,[1],2.09e+06 M⁻¹ s⁻¹
same,IC50,[2],0.0123 µg/mL
same,"IC50, luciferase reporter (procedure of Example 30)",[3],0.429 nM
same,IC50,[4],0.129 µg/mL
same,"IC50, luciferase reporter (procedure of Example 34)",[5],1.05 nM
same,EC50,[6],0.0358 µg/mL
same,Kd,[7],5.64 nM
same,koff,[7],0.00449 s⁻¹
same,kon,[7],796000 M⁻¹ s⁻¹
same,EC50,[8],0.521 µg/mL
B3,Kd,[9],0.174 nM
same,koff,[9],0.000153 s⁻¹
same,kon,[9],881000 M⁻¹ s⁻¹
same,IC50,[10],0.476 µg/mL
same,EC50,[11],0.0674 µg/mL
B4,EC50,[12],0.265 µg/mL
same,IC50,[13],0.256 µg/mL
B5,EC50,[12],0.272 µg/mL
same,IC50,[13],0.218 µg/mL
B6,EC50,[12],0.193 µg/mL
same,IC50,[13],0.158 µg/mL
same,Kd,[14],6.96 nM
same,koff,[14],0.00143 s⁻¹
same,kon,[14],205000 M⁻¹ s⁻¹
B7,IC50,[10],0.805 µg/mL
same,EC50,[11],0.118 µg/mL
B8,IC50,[10],0.563 µg/mL
same,EC50,[11],0.0649 µg/mL
